Source: patent US20180291110A1 (Hoffmann-La Roche, published 2018)

Target: T1, human transferrin receptor (recombinant, for surface plasmon resonance) (human, UniProt P02786 89-760)
T1 construct: also called huTfR; human transferrin receptor-biotinylated
Test: SPR 25C

T1 sequence (P02786 89-760 limits assumed): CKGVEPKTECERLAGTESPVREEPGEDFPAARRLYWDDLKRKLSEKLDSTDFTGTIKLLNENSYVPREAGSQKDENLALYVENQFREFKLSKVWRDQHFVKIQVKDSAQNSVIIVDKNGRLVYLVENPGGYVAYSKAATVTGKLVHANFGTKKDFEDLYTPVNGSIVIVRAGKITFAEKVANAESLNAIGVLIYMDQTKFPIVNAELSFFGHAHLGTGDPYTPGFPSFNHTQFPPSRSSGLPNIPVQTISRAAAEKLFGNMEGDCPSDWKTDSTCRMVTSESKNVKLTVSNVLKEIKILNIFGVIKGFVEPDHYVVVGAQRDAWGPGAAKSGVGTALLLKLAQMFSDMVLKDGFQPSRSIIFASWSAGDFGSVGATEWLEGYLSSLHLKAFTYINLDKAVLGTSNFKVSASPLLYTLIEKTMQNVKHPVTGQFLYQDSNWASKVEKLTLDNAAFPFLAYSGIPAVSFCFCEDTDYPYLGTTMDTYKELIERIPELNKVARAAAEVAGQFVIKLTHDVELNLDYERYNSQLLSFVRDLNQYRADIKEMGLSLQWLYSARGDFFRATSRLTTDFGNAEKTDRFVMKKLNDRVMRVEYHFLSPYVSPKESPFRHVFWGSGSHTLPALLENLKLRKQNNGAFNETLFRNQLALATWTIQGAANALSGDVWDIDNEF

Binder	koff [s⁻¹]
2/99 VH0(rb)/VL0(rb) (antibody, V domains shown, 0 (rb) read as the rabbit parental domains of clone 2/99) VH: QSMEESGGRLVTPGTPLTLTCTVSGFSLSSYAMSWVRQAPGKGLEWIGYIWSGGSTDYASWAKGRFTISKTSTTVDLKITSPTTEDTATYFCARRYGTSYPDYGDANGFDPWGPGTLVTVSS VL: AYDMTQTPASVEVAVGGTVTIKCQASQSISSYLSWYQQKPGQRPKLLIYRASTLASGVSSRFKGSGSGTQFTLTISGVECADAATYYCQQCYSSSNVDNTFGGGTEVVVKR	0.000434
2/99 VH1/VL1 (antibody, V domains shown) VH: VQLVETGGGLIQPGGSLRLSCAASGFSLSSYAMSWVRQAPGKGLEWVGYIWSGGSTDYADSVKGRFTISRDNSKNTLYLQMNSLRAEDTAVYYCARRYGTSYPDYGDANGFDPWGQGTLVTVSS VL: DIQMTQSPSSLSASVGDRVTITCRASQSISSYLNWYQQKPGKAPKLLIYRASSLQSGVPSRFSGSGSGTDFTLTISSLQPEDFATYYCQQSYSSSNVDNTFGGGTKVEIK	0.001
2/99 VH2/VL1 (antibody, V domains shown) VH: EVQLVETGGGLIQPGGSLRLSCAASGFSLSSYAMSWVRQAPGKGLEWVGYIWSGGSTDYADSVKGRFTISRDNSKNTLYLQMNSLRAEDTAVYYCARRYGTSYPDYGDANGFDPWGQGTLVTVSS VL: DIQMTQSPSSLSASVGDRVTITCRASQSISSYLNWYQQKPGKAPKLLIYRASSLQSGVPSRFSGSGSGTDFTLTISSLQPEDFATYYCQQSYSSSNVDNTFGGGTKVEIK	0.001
2/99 VH5/VL1 (antibody, V domains shown) VH: QSMEETGGGLIQPGGSLRLSCAASGFSLSSYAMSWVRQAPGKGLEWVGYIWSGGSTDYADSVKGRFTISRDNSKNTLYLQMNSLRAEDTAVYYCARRYGTSYPDYGDANGFDPWGPGTLVTVSS VL: DIQMTQSPSSLSASVGDRVTITCRASQSISSYLNWYQQKPGKAPKLLIYRASSLQSGVPSRFSGSGSGTDFTLTISSLQPEDFATYYCQQSYSSSNVDNTFGGGTKVEIK	0.001
2/99 VH6/VL1 (antibody, V domains shown) VH: QQLVETGGGLIQPGGSLRLSCAASGFSLSSYAMSWVRQAPGKGLEWIGYIWSGGSTDYADSVKGRFTISRDNSKNTLYLQMNSLRAEDTAVYYCARRYGTSYPDYGDANGFDPWGQGTLVTVSS VL: DIQMTQSPSSLSASVGDRVTITCRASQSISSYLNWYQQKPGKAPKLLIYRASSLQSGVPSRFSGSGSGTDFTLTISSLQPEDFATYYCQQSYSSSNVDNTFGGGTKVEIK	0.001
2/99 VH7/VL1 (antibody, V domains shown) VH: QQLVETGGGLIQPGGSLRLSCAASGFSLSSYAMSWVRQAPGKGLEWIGYIWSGGSTDYASWAKGRFTISRDNSKNTLYLQMNSLRAEDTAVYYCARRYGTSYPDYGDANGFDPWGQGTLVTVSS VL: DIQMTQSPSSLSASVGDRVTITCRASQSISSYLNWYQQKPGKAPKLLIYRASSLQSGVPSRFSGSGSGTDFTLTISSLQPEDFATYYCQQSYSSSNVDNTFGGGTKVEIK	0.00752
2/99 VH8/VL1 (antibody, V domains shown) VH: QQLVETGGGLIQPGGSLRLSCAASGFSLSSYAMSWVRQAPGKGLEWIGYIWSGGSTDYASWAKGRFTISKTSTTLYLQMNSLRAEDTAVYYCARRYGTSYPDYGDANGFDPWGQGTLVTVSS VL: DIQMTQSPSSLSASVGDRVTITCRASQSISSYLNWYQQKPGKAPKLLIYRASSLQSGVPSRFSGSGSGTDFTLTISSLQPEDFATYYCQQSYSSSNVDNTFGGGTKVEIK	0.00319
2/99 VH9/VL1 (antibody, V domains shown) VH: QQLLESGGGLVQPGGSLRLSCAASGFTFSSYAMSWVRQAPGKGLEWVGYIWSGGSTDYADSVKGRFTISRDNSKNTLYLQMNSLRAEDTAVYYCAKRYGTSYPDYGDANGFDPWGQGTLVTVSS VL: DIQMTQSPSSLSASVGDRVTITCRASQSISSYLNWYQQKPGKAPKLLIYRASSLQSGVPSRFSGSGSGTDFTLTISSLQPEDFATYYCQQSYSSSNVDNTFGGGTKVEIK	0.00694
2/99 VH11/VL1 (antibody, V domains shown) VH: QQLLESGGGLVQPGGSLRLSCAASGFSLSSYAMSWVRQAPGKGLEWVGYIWSGGSTDYADSVKGRFTISRDNSKNTLYLQMNSLRAEDTAVYYCARRYGTSYPDYGDANGFDPWGQGTLVTVSS VL: DIQMTQSPSSLSASVGDRVTITCRASQSISSYLNWYQQKPGKAPKLLIYRASSLQSGVPSRFSGSGSGTDFTLTISSLQPEDFATYYCQQSYSSSNVDNTFGGGTKVEIK	0.001
2/99 VH12/VL1 (antibody, V domains shown) VH: QVQLQESGPGLVKPSETLSLTCTVSGFSLSSYAMSWIRQPPGKGLEWIGYIWSGGSTDYNPSLKSRVTISVDTSKNQFSLKLSSVTAADTAVYYCARRYGTSYPDYGDANGFDPWGQGTLVTVSS VL: DIQMTQSPSSLSASVGDRVTITCRASQSISSYLNWYQQKPGKAPKLLIYRASSLQSGVPSRFSGSGSGTDFTLTISSLQPEDFATYYCQQSYSSSNVDNTFGGGTKVEIK	0.001
2/99 VH13/VL1 (antibody, V domains shown) VH: QVQLQESGPGLVKPSETLSLTCTVSGFSLSSYAMSWIRQPPGKGLEWIGYIWSGGSTDYNPSLKSRVTISVDTSKNQVSLKLSSVTAADTAVYYCARRYGTSYPDYGDANGFDPWGQGTLVTVSS VL: DIQMTQSPSSLSASVGDRVTITCRASQSISSYLNWYQQKPGKAPKLLIYRASSLQSGVPSRFSGSGSGTDFTLTISSLQPEDFATYYCQQSYSSSNVDNTFGGGTKVEIK	0.001
2/99 VH15/VL1 (antibody, V domains shown) VH: QQLQESGPGLVKPSETLSLTCTVSGFSLSSYAMSWVRQPPGKGLEWIGYIWSGGSTDYNPSLKSRVTISVDTSKNQVSLKLSSVTAADTAVYYCARRYGTSYPDYGDANGFDPWGQGTLVTVSS VL: DIQMTQSPSSLSASVGDRVTITCRASQSISSYLNWYQQKPGKAPKLLIYRASSLQSGVPSRFSGSGSGTDFTLTISSLQPEDFATYYCQQSYSSSNVDNTFGGGTKVEIK	0.00772
2/99 VH16/VL1 (antibody, V domains shown) VH: QQLQESGPGLVKPSETLSLTCTVSGFSLSSYAMSWVRQPPGKGLEWIGYIWSGGSTDYNPSLKSRVTISVDTSKNQVSLKLSSVTAADTAVYYCARRYGTSYPDYGDANGFDPWGPGTLVTVSS VL: DIQMTQSPSSLSASVGDRVTITCRASQSISSYLNWYQQKPGKAPKLLIYRASSLQSGVPSRFSGSGSGTDFTLTISSLQPEDFATYYCQQSYSSSNVDNTFGGGTKVEIK	0.00771
2/99 VH17/VL1 (antibody, V domains shown) VH: QQLQESGPGLVKPSETLSLTCTVSGFSLSSYAMSWVRQPPGKGLEWIGYIWSGGSTDYNPSLKSRVTISKDTSKNQVSLKLSSVTAADTAVYYCARRYGTSYPDYGDANGFDPWGPGTLVTVSS VL: DIQMTQSPSSLSASVGDRVTITCRASQSISSYLNWYQQKPGKAPKLLIYRASSLQSGVPSRFSGSGSGTDFTLTISSLQPEDFATYYCQQSYSSSNVDNTFGGGTKVEIK	0.00433
2/99 VH18/VL1 (antibody, V domains shown) VH: QVQLQESGPGLVKPSQTLSLTCTVSGFSLSSYAMSWIRQHPGKGLEWIGYIWSGGSTDYAPSLKSRVTISVDTSKNQFSLKLSSVTAADTAVYYCARRYGTSYPDYGDANGFDPWGQGTLVTVSS VL: DIQMTQSPSSLSASVGDRVTITCRASQSISSYLNWYQQKPGKAPKLLIYRASSLQSGVPSRFSGSGSGTDFTLTISSLQPEDFATYYCQQSYSSSNVDNTFGGGTKVEIK	0.001
2/99 VH19/VL1 (antibody, V domains shown) VH: QSMQESGPGLVKPSQTLSLTCTVSGFSLSSYAMSWIRQHPGKGLEWIGYIWSGGSTDYAPSLKSRVTISVDTSKNQFSLKLSSVTAADTAVYYCARRYGTSYPDYGDANGFDPWGQGTLVTVSS VL: DIQMTQSPSSLSASVGDRVTITCRASQSISSYLNWYQQKPGKAPKLLIYRASSLQSGVPSRFSGSGSGTDFTLTISSLQPEDFATYYCQQSYSSSNVDNTFGGGTKVEIK	0.001
2/99 VH20/VL1 (antibody, V domains shown) VH: QSMQESGPGLVKPSQTLSLTCTVSGFSLSSYAMSWIRQHPGKGLEWIGYIWSGGSTDYAPSLKSRVTISVDTSKNQVSLKLSSVTAADTAVYYCARRYGTSYPDYGDANGFDPWGQGTLVTVSS VL: DIQMTQSPSSLSASVGDRVTITCRASQSISSYLNWYQQKPGKAPKLLIYRASSLQSGVPSRFSGSGSGTDFTLTISSLQPEDFATYYCQQSYSSSNVDNTFGGGTKVEIK	0.001
2/99 VH21/VL1 (antibody, V domains shown) VH: QSMQESGPGLVKPSQTLSLTCTVSGFSLSSYAMSWIRQHPGKGLEWIGYIWSGGSTDYASWAKSRVTISVDTSKNQVSLKLSSVTAADTAVYYCARRYGTSYPDYGDANGFDPWGQGTLVTVSS VL: DIQMTQSPSSLSASVGDRVTITCRASQSISSYLNWYQQKPGKAPKLLIYRASSLQSGVPSRFSGSGSGTDFTLTISSLQPEDFATYYCQQSYSSSNVDNTFGGGTKVEIK	0.00771
2/99 VH22/VL1 (antibody, V domains shown) VH: QSMQESGPGLVKPSQTLSLTCTVSGFSLSSYAMSWVRQHPGKGLEWIGYIWSGGSTDYASWAKSRVTISVDTSKNQVSLKLSSVTAADTAVYYCARRYGTSYPDYGDANGFDPWGQGTLVTVSS VL: DIQMTQSPSSLSASVGDRVTITCRASQSISSYLNWYQQKPGKAPKLLIYRASSLQSGVPSRFSGSGSGTDFTLTISSLQPEDFATYYCQQSYSSSNVDNTFGGGTKVEIK	0.00578
2/99 VH23-DANG/VL1 (antibody, V domains shown) VH: QSMQESGPGLVKPSQTLSLTCTVSGFSLSSYAMSWIRQHPGKGLEWIGYIWSGGSTDYASWAKSRVTISKTSTTVSLKLSSVTAADTAVYYCARRYGTSYPDYGDANGFDPWGQGTLVTVSS VL: DIQMTQSPSSLSASVGDRVTITCRASQSISSYLNWYQQKPGKAPKLLIYRASSLQSGVPSRFSGSGSGTDFTLTISSLQPEDFATYYCQQSYSSSNVDNTFGGGTKVEIK	0.0028
2/99 VH1/VL2 (antibody, V domains shown) VH: VQLVETGGGLIQPGGSLRLSCAASGFSLSSYAMSWVRQAPGKGLEWVGYIWSGGSTDYADSVKGRFTISRDNSKNTLYLQMNSLRAEDTAVYYCARRYGTSYPDYGDANGFDPWGQGTLVTVSS VL: DIQMTQSPSSLSASVGDRVTITCRASQSISSYLNWYQQKPGKAPKLLIYRASTLASGVPSRFSGSGSGTDFTLTISSLQPEDFATYYCQQSYSSSNVDNTFGGGTKVEIK	0.00286
2/99 VH2/VL2 (antibody, V domains shown) VH: EVQLVETGGGLIQPGGSLRLSCAASGFSLSSYAMSWVRQAPGKGLEWVGYIWSGGSTDYADSVKGRFTISRDNSKNTLYLQMNSLRAEDTAVYYCARRYGTSYPDYGDANGFDPWGQGTLVTVSS VL: DIQMTQSPSSLSASVGDRVTITCRASQSISSYLNWYQQKPGKAPKLLIYRASTLASGVPSRFSGSGSGTDFTLTISSLQPEDFATYYCQQSYSSSNVDNTFGGGTKVEIK	0.00275
